In paper PMC11329725 (Nature Communications, 2024) one finds binding result and Kd data, which are given here for four molecules.

Series [1] addresses BRCA2 DBD;DSS1(1-54) (partner of DBD) (mouse;human?, UniProt P97929;P60896 2378-3115;1-54, |del55-70). The series can be described thus: EMSA. Background: Mobility shift assays separate free from complexed probe on a gel.
The target of series [2] is BRCA2 DBD;DSS1 R57Q (partner of DBD) (mouse;human?, UniProt P97929;P60896 2378-3115;1-70, |R57Q). Briefly: EMSA.
Series [3] deals with T1, OB23 (OB2-OB3 with tower) (human, UniProt P51587 2808-3192).
T1 sequence: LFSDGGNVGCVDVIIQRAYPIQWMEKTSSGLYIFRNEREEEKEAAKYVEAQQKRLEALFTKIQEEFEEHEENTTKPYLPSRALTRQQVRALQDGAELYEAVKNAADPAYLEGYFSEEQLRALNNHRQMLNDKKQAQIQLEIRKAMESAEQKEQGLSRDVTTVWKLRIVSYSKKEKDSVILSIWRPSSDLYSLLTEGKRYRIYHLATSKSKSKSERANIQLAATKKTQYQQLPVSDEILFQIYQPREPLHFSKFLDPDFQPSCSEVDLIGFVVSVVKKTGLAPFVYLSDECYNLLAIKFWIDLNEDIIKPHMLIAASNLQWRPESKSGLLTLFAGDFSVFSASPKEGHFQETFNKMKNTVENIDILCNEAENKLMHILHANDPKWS
Briefly: EMSA.

Series [4] concerns the target BRCA2 DBD;DSS1(1-36) (partner of DBD) (mouse;human?, UniProt P97929;P60896 2378-3115;1-36, |del37-70). Briefly: EMSA.
The target in another series is T2, BRCA2 DBD (mouse, UniProt P97929 2378-3115).
T2 sequence: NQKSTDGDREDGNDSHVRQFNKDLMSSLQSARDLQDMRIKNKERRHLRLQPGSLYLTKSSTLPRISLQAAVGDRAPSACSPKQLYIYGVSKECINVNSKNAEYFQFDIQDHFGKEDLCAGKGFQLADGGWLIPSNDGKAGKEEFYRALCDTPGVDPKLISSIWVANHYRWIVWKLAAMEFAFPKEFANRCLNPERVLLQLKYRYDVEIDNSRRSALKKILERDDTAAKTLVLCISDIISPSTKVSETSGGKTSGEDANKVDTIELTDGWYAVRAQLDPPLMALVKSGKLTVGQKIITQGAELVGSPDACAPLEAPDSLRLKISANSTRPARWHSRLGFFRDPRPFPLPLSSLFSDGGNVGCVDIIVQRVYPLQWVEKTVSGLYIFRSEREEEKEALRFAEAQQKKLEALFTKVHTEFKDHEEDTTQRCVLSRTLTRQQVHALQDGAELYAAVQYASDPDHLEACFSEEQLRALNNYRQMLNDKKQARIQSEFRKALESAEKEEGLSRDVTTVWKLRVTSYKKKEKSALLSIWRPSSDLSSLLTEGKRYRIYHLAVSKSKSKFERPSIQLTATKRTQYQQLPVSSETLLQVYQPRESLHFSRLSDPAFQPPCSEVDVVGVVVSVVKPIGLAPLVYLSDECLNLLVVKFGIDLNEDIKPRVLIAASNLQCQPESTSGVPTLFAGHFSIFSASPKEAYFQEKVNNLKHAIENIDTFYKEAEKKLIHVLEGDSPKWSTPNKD
Briefly: EMSA.

Series [5] deals with T3, His6-HDOB1 (human BRCA2 helical domain and OB fold 1, residues 2479-2807) (human, UniProt P51587 2479-2807).
T3 sequence: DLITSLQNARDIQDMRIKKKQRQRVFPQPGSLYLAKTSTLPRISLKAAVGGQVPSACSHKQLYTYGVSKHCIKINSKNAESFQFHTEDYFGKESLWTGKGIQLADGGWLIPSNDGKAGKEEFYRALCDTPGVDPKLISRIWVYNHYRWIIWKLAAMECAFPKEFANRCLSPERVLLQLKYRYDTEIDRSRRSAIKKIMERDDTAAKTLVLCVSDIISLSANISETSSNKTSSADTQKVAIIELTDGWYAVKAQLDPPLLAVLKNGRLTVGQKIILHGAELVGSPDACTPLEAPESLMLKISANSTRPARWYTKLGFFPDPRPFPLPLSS
The series can be described thus: co-purification.

B1: Cy5 80-mer ssDNA (oligo 1) (ssDNA)
DNA: TTATATCCTTTACTTTGAATTCTATGTTTAACCTTTTACTTATTTTGTATTAGCCGGACCTTATTTCAATTATGTTCAT
For B1, the binding result (in series [1]; in series [2]; in series [4]; in the series with BRCA2 DBD) was “binds” in each case. Further, in series [3], the dissociation constant (Kd) is 270 nM.

B2: Cy5 80-bp dsDNA (oligo 1/oligo 2) (dsDNA)
DNA 1: TTATATCCTTTACTTTGAATTCTATGTTTAACCTTTTACTTATTTTGTATTAGCCGGACCTTATTTCAATTATGTTCAT
DNA 2: ATGAACATAATTGAAATAAGGATCCGGCTAATACAAAATAAGTAAAAGGTTAAACATAGAATTCAAAGTAAAGGATATAA
Regarding B2, the binding result (in series [1]; in series [2]; in series [4]; with BRCA2 DBD) was “binds” throughout.

B3: GST-DSS1 1-45, co-expressed with His6-HDOB1 in E. coli (domain or fragment)
chain: MSEKKQPVDLGLLEEDDEFEEFPAEDWAGLDEDEDAHVWEDNWDD
As for B3, in series [5], the binding result was “binds”.

B4: GST-DSS1 1-54, co-expressed with His6-HDOB1 in E. coli (domain or fragment)
chain: MSEKKQPVDLGLLEEDDEFEEFPAEDWAGLDEDEDAHVWEDNWDDDNVEDDFSN
For the molecule B4, in series [5], the binding result was “binds”.

What is called Kd is a measure of binding affinity in units of concentration. Lower therefore signals a tighter complex.
